Our source for the ratio to parent values is paper PMC8982406.

Sequences and labels used below:
T1: ZC4H2 (wild type; mapping and mutation co-IPs), Q9NQZ6
T1 chain: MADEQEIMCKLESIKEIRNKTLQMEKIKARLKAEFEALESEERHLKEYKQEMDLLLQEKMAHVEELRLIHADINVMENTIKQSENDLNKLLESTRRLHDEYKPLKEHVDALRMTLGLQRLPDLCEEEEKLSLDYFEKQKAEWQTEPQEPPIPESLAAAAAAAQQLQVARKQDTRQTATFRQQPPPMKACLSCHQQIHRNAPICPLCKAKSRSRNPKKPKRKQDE

B1: full-length RLIM protein (wild type; mapping and mutation co-IPs), Q9NVW2 R599C (protein)
chain: MENSDSNDKGSGDQSAAQRRSQMDRLDREEAFYQFVNNLSEEDYRLMRDNNLLGTPGESTEEELLRRLQQIKEGPPPQNSDENRGGDSSDDVSNGDSIIDWLNSVRQTGNTTRSGQRGNQSWRAVSRTNPNSGDFRFSLEINVNRNNGSQNSENENEPSARRSSGENVENNSQRQVENPRSESTSARPSRSERNSTEALTEVPPTRGQRRARSRSPDHRRTRARAERSRSPLHPMSEIPRRSHHSISSQTFEHPLVNETEGSSRTRHHVTLRQQISGPELLSRGLFAASGTRNASQGAGSSDTAASGESTGSGQRPPTIVLDLQVRRVRPGEYRQRDSIASRTRSRSQTPNNTVTYESERGGFRRTFSRSERAGVRTYVSTIRIPIRRILNTGLSETTSVAIQTMLRQIMTGFGELSYFMYSDSDSEPTGSVSNRNMERAESRSGRGGSGGGSSSGSSSSSSSSSSSSSSSSSSSSPSSSSGGESSETSSDLFEGSNEGSSSSGSSGARREGRHRAPVTFDESGSLPFLSLAQFFLLNEDDDDQPRGLTKEQIDNLAMRSFGENDALKTCSVCITEYTEGNKLRKLPCSHEYHVHCIDCWLSENSTCPICRRAVLASGNRESVV
B2: full-length RLIM protein (wild type; mapping and mutation co-IPs), Q9NVW2 R365C (protein)
chain: MENSDSNDKGSGDQSAAQRRSQMDRLDREEAFYQFVNNLSEEDYRLMRDNNLLGTPGESTEEELLRRLQQIKEGPPPQNSDENRGGDSSDDVSNGDSIIDWLNSVRQTGNTTRSGQRGNQSWRAVSRTNPNSGDFRFSLEINVNRNNGSQNSENENEPSARRSSGENVENNSQRQVENPRSESTSARPSRSERNSTEALTEVPPTRGQRRARSRSPDHRRTRARAERSRSPLHPMSEIPRRSHHSISSQTFEHPLVNETEGSSRTRHHVTLRQQISGPELLSRGLFAASGTRNASQGAGSSDTAASGESTGSGQRPPTIVLDLQVRRVRPGEYRQRDSIASRTRSRSQTPNNTVTYESERGGFRCTFSRSERAGVRTYVSTIRIPIRRILNTGLSETTSVAIQTMLRQIMTGFGELSYFMYSDSDSEPTGSVSNRNMERAESRSGRGGSGGGSSSGSSSSSSSSSSSSSSSSSSSSPSSSSGGESSETSSDLFEGSNEGSSSSGSSGARREGRHRAPVTFDESGSLPFLSLAQFFLLNEDDDDQPRGLTKEQIDNLAMRSFGENDALKTCSVCITEYTEGNKLRKLPCSHEYHVHCIDRWLSENSTCPICRRAVLASGNRESVV
B3: full-length RLIM protein (wild type; mapping and mutation co-IPs), Q9NVW2 D598N (protein)
chain: MENSDSNDKGSGDQSAAQRRSQMDRLDREEAFYQFVNNLSEEDYRLMRDNNLLGTPGESTEEELLRRLQQIKEGPPPQNSDENRGGDSSDDVSNGDSIIDWLNSVRQTGNTTRSGQRGNQSWRAVSRTNPNSGDFRFSLEINVNRNNGSQNSENENEPSARRSSGENVENNSQRQVENPRSESTSARPSRSERNSTEALTEVPPTRGQRRARSRSPDHRRTRARAERSRSPLHPMSEIPRRSHHSISSQTFEHPLVNETEGSSRTRHHVTLRQQISGPELLSRGLFAASGTRNASQGAGSSDTAASGESTGSGQRPPTIVLDLQVRRVRPGEYRQRDSIASRTRSRSQTPNNTVTYESERGGFRRTFSRSERAGVRTYVSTIRIPIRRILNTGLSETTSVAIQTMLRQIMTGFGELSYFMYSDSDSEPTGSVSNRNMERAESRSGRGGSGGGSSSGSSSSSSSSSSSSSSSSSSSSPSSSSGGESSETSSDLFEGSNEGSSSSGSSGARREGRHRAPVTFDESGSLPFLSLAQFFLLNEDDDDQPRGLTKEQIDNLAMRSFGENDALKTCSVCITEYTEGNKLRKLPCSHEYHVHCINRWLSENSTCPICRRAVLASGNRESVV
B4: full-length RLIM protein (wild type; mapping and mutation co-IPs), Q9NVW2 R611C (protein)
chain: MENSDSNDKGSGDQSAAQRRSQMDRLDREEAFYQFVNNLSEEDYRLMRDNNLLGTPGESTEEELLRRLQQIKEGPPPQNSDENRGGDSSDDVSNGDSIIDWLNSVRQTGNTTRSGQRGNQSWRAVSRTNPNSGDFRFSLEINVNRNNGSQNSENENEPSARRSSGENVENNSQRQVENPRSESTSARPSRSERNSTEALTEVPPTRGQRRARSRSPDHRRTRARAERSRSPLHPMSEIPRRSHHSISSQTFEHPLVNETEGSSRTRHHVTLRQQISGPELLSRGLFAASGTRNASQGAGSSDTAASGESTGSGQRPPTIVLDLQVRRVRPGEYRQRDSIASRTRSRSQTPNNTVTYESERGGFRRTFSRSERAGVRTYVSTIRIPIRRILNTGLSETTSVAIQTMLRQIMTGFGELSYFMYSDSDSEPTGSVSNRNMERAESRSGRGGSGGGSSSGSSSSSSSSSSSSSSSSSSSSPSSSSGGESSETSSDLFEGSNEGSSSSGSSGARREGRHRAPVTFDESGSLPFLSLAQFFLLNEDDDDQPRGLTKEQIDNLAMRSFGENDALKTCSVCITEYTEGNKLRKLPCSHEYHVHCIDRWLSENSTCPICCRAVLASGNRESVV
B5: full-length RLIM protein (wild type; mapping and mutation co-IPs), Q9NVW2 P587R (protein)
chain: MENSDSNDKGSGDQSAAQRRSQMDRLDREEAFYQFVNNLSEEDYRLMRDNNLLGTPGESTEEELLRRLQQIKEGPPPQNSDENRGGDSSDDVSNGDSIIDWLNSVRQTGNTTRSGQRGNQSWRAVSRTNPNSGDFRFSLEINVNRNNGSQNSENENEPSARRSSGENVENNSQRQVENPRSESTSARPSRSERNSTEALTEVPPTRGQRRARSRSPDHRRTRARAERSRSPLHPMSEIPRRSHHSISSQTFEHPLVNETEGSSRTRHHVTLRQQISGPELLSRGLFAASGTRNASQGAGSSDTAASGESTGSGQRPPTIVLDLQVRRVRPGEYRQRDSIASRTRSRSQTPNNTVTYESERGGFRRTFSRSERAGVRTYVSTIRIPIRRILNTGLSETTSVAIQTMLRQIMTGFGELSYFMYSDSDSEPTGSVSNRNMERAESRSGRGGSGGGSSSGSSSSSSSSSSSSSSSSSSSSPSSSSGGESSETSSDLFEGSNEGSSSSGSSGARREGRHRAPVTFDESGSLPFLSLAQFFLLNEDDDDQPRGLTKEQIDNLAMRSFGENDALKTCSVCITEYTEGNKLRKLRCSHEYHVHCIDRWLSENSTCPICRRAVLASGNRESVV
B6: full-length RLIM protein (wild type; mapping and mutation co-IPs), Q9NVW2 R387C (protein)
chain: MENSDSNDKGSGDQSAAQRRSQMDRLDREEAFYQFVNNLSEEDYRLMRDNNLLGTPGESTEEELLRRLQQIKEGPPPQNSDENRGGDSSDDVSNGDSIIDWLNSVRQTGNTTRSGQRGNQSWRAVSRTNPNSGDFRFSLEINVNRNNGSQNSENENEPSARRSSGENVENNSQRQVENPRSESTSARPSRSERNSTEALTEVPPTRGQRRARSRSPDHRRTRARAERSRSPLHPMSEIPRRSHHSISSQTFEHPLVNETEGSSRTRHHVTLRQQISGPELLSRGLFAASGTRNASQGAGSSDTAASGESTGSGQRPPTIVLDLQVRRVRPGEYRQRDSIASRTRSRSQTPNNTVTYESERGGFRRTFSRSERAGVRTYVSTIRIPICRILNTGLSETTSVAIQTMLRQIMTGFGELSYFMYSDSDSEPTGSVSNRNMERAESRSGRGGSGGGSSSGSSSSSSSSSSSSSSSSSSSSPSSSSGGESSETSSDLFEGSNEGSSSSGSSGARREGRHRAPVTFDESGSLPFLSLAQFFLLNEDDDDQPRGLTKEQIDNLAMRSFGENDALKTCSVCITEYTEGNKLRKLPCSHEYHVHCIDRWLSENSTCPICRRAVLASGNRESVV
B7: full-length RLIM protein (wild type; mapping and mutation co-IPs), Q9NVW2 Y356C (protein)
chain: MENSDSNDKGSGDQSAAQRRSQMDRLDREEAFYQFVNNLSEEDYRLMRDNNLLGTPGESTEEELLRRLQQIKEGPPPQNSDENRGGDSSDDVSNGDSIIDWLNSVRQTGNTTRSGQRGNQSWRAVSRTNPNSGDFRFSLEINVNRNNGSQNSENENEPSARRSSGENVENNSQRQVENPRSESTSARPSRSERNSTEALTEVPPTRGQRRARSRSPDHRRTRARAERSRSPLHPMSEIPRRSHHSISSQTFEHPLVNETEGSSRTRHHVTLRQQISGPELLSRGLFAASGTRNASQGAGSSDTAASGESTGSGQRPPTIVLDLQVRRVRPGEYRQRDSIASRTRSRSQTPNNTVTCESERGGFRRTFSRSERAGVRTYVSTIRIPIRRILNTGLSETTSVAIQTMLRQIMTGFGELSYFMYSDSDSEPTGSVSNRNMERAESRSGRGGSGGGSSSGSSSSSSSSSSSSSSSSSSSSPSSSSGGESSETSSDLFEGSNEGSSSSGSSGARREGRHRAPVTFDESGSLPFLSLAQFFLLNEDDDDQPRGLTKEQIDNLAMRSFGENDALKTCSVCITEYTEGNKLRKLPCSHEYHVHCIDRWLSENSTCPICRRAVLASGNRESVV
B8: full-length RLIM protein (wild type; mapping and mutation co-IPs), Q9NVW2 P77L (protein)
chain: MENSDSNDKGSGDQSAAQRRSQMDRLDREEAFYQFVNNLSEEDYRLMRDNNLLGTPGESTEEELLRRLQQIKEGPPLQNSDENRGGDSSDDVSNGDSIIDWLNSVRQTGNTTRSGQRGNQSWRAVSRTNPNSGDFRFSLEINVNRNNGSQNSENENEPSARRSSGENVENNSQRQVENPRSESTSARPSRSERNSTEALTEVPPTRGQRRARSRSPDHRRTRARAERSRSPLHPMSEIPRRSHHSISSQTFEHPLVNETEGSSRTRHHVTLRQQISGPELLSRGLFAASGTRNASQGAGSSDTAASGESTGSGQRPPTIVLDLQVRRVRPGEYRQRDSIASRTRSRSQTPNNTVTYESERGGFRRTFSRSERAGVRTYVSTIRIPIRRILNTGLSETTSVAIQTMLRQIMTGFGELSYFMYSDSDSEPTGSVSNRNMERAESRSGRGGSGGGSSSGSSSSSSSSSSSSSSSSSSSSPSSSSGGESSETSSDLFEGSNEGSSSSGSSGARREGRHRAPVTFDESGSLPFLSLAQFFLLNEDDDDQPRGLTKEQIDNLAMRSFGENDALKTCSVCITEYTEGNKLRKLPCSHEYHVHCIDRWLSENSTCPICRRAVLASGNRESVV

The target in the test is T1, ZC4H2 (wild type; mapping and mutation …). Nature of the test: co-IP (IP: FLAG, IB: myc), blot quantification. Particulars: chain shown with the change; hRLIM-myc + ZC4H2-FLAG, MG132 +, HEK293 cells; parent: 1.00.
For B1, the ratio to parent came to 0.65.

Take B2: the ratio to parent worked out at 1.02.

In the case of B3, the ratio to parent turned out to be 0.23.

In the case of B4, the ratio to parent turned out to be 0.17.

On to B5, for which the ratio to parent amounted to 0.72.

As to B6, the ratio to parent came out at 0.18.

As for B7, the ratio to parent amounted to 0.91.

For the molecule B8, the ratio to parent came to 0.95.
